What was measured:
Assay in all cases: method not stated for Table 5; Fc variant against Fcγ receptor
FcγRIIb (human) = FcγRIIb (human) (UniProt P31994)
FcγRIIa-H131 (human) = FcγRIIa-H131 (human) (UniProt P12318)
FcγRIIa-R131 (human) = FcγRIIa-R131 (human) (UniProt P12318)
Sequence of FcγRIIa-R131 (human) (P12318 34-218 H167R limits assumed): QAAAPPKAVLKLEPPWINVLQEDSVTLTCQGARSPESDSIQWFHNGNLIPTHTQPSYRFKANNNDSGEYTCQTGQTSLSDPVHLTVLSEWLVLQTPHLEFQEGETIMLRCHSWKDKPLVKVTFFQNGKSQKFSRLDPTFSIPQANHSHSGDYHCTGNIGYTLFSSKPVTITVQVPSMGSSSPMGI

Sequence of FcγRIIb (human) (P31994 43-217 limits assumed): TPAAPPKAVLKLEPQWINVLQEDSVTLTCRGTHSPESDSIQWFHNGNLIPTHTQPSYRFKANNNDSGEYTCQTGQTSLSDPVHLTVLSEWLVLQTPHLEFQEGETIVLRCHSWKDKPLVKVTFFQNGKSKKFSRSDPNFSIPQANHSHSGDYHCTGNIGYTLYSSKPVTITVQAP
Sequence of FcγRIIa-H131 (human) (P12318 34-218 limits assumed): as the sequence (P12318 34-218 H167R limits assumed) above, with R134H counted along it

Substance	Kd (FcγRIIb (human)) [nM]	Kd (FcγRIIa-H131 (human)) [nM]	Kd (FcγRIIa-R131 (human)) [nM]
IgG1f Fc sequence variant (Table 5) (antibody)	3900	530	850
P238D Fc sequence variant (Table 5) (antibody)	950		
SE Fc sequence variant (Table 5) (antibody)	98	520	22
SELF Fc sequence variant (Table 5) (antibody)			2

Source: patent publication US20180142030A1
